Results as given in paper PMC4122979 (Bioscience Reports, 2014).

These binders were tested against Human CaM (calmodulin) (human, UniProt P0DP23 1-149) (assay: cell-based or functional assay).

inhibition of eNOS L-citrulline formation (100 nM eNOS, 0.5 uM CaM) by 10 uM peptide | Binder
87% | TRKKTFKEVANAVKISASLM [Unmodified CBD peptide, T495 (heNOS CaM-binding domain, residues 491-510)]
20% | TRKKDFKEVANAVKISASLM [Phosphomimetic CBD peptide, D495 (heNOS residues 491-510)]
70% | TRKKAFKEVANAVKISASLM [Phospho-null CBD peptide, A495 (heNOS residues 491-510)]
